doi:10.1101/2023.05.22.541649

Experiments:
[1] = target: GFP-CENP-T^1–242–I3-01 (human) (UniProt Q96BT3); assay: fluorescence intensity of single particles
[2] = target: GFP-CENP-T^1–242^/3D (human) (UniProt Q96BT3); assay: single-molecule TIRF binding assay; settings: scale: NDC80^Bonsai complexes per GFP-CENP-T^1–242^/3D molecule
[3] = target: GFP-CENP-T^1–242^/3D-I3-01 (human) (UniProt Q96BT3); assay: single-molecule TIRF binding assay; settings: scale: NDC80^Bonsai molecules per GFP-CENP-T^1–242^/3D molecule
GFP-I3-01 (recombinant) = assay: fluorescence intensity of single particles
[4] = target: GFP-CENP-T^1–242–I3-01 (human) (UniProt Q96BT3); assay: affinity purification with mass spectrometry
GFP-I3-01 = assay: fluorescence intensity of single particles
[5] = target: GFP-CENP-T^1–242^/3D-I3-01 (human) (UniProt Q96BT3); assay: fluorescence intensity of single particles

GFP-CENP-T^1–242–I3-01 (from UniProt Q96BT3 1-242)
stoichiometry N (GFP molecules per oligomer) [1]: 41

GFP-tagged NDC80^Bonsai complex
stoichiometry N [2]: 0.28 | stoichiometry N [3]: 2.2

GFP-I3-01 (recombinant)
stoichiometry N (GFP molecules per oligomer) (GFP-I3-01 (recombinant)): 44

MIS12 complex (from UniProt Q9H081 1-205)
fold more per CENP-T molecule than with monomeric GFP-CENP-T^1–242 [4]: 5.4 fold

KNL1 complex (from UniProt Q8NG31 1-2342)
fold more per CENP-T molecule than with monomeric GFP-CENP-T^1–242 [4]: 2.7 fold

GFP-I3-01
stoichiometry N (GFP molecules per oligomer) (GFP-I3-01): 51

NDC80 complex (from UniProt O14777 1-642; Q8NBT2 1-197; Q9HBM1 1-224)
fold more per CENP-T molecule than with monomeric GFP-CENP-T^1–242 [4]: 5.6 fold

GFP-CENP-T^1–242^/3D-I3-01 (from UniProt Q96BT3 1-242)
stoichiometry N (molecules per complex) [5]: 66
